The results in this text go back to US20190202914A1.

The assay addresses cynoCTLA-4-his protein (CT4-05227, AcroBio) (cyno) (UniProt G7PL88). The assay is described as follows: SPR, Biacore T200, antibody immobilised, CTLA-4-his injected, 1:1 model.

B1: CL5′-dPTM′ (antibody, human IgG1, V domains shown)
VH: EVQLVESGGGLIQPGGSLRLSCAVSGFTVSKNYMSWVRQAPGKGLEWVSVVYSGGSKTYADSVKGRFTISRDNSKNTLYLQMNSLRAEDTAVYYCARAVPHSPSSFDIWGQGTMVTVSS
In general, Kd refers to the constant that tells how readily two partners part at equilibrium. Low readings indicate tighter binding, high ones weaker binding. In general, koff refers to the rate constant with which the complex falls apart. One may read the kon as the second-order rate constant of association. Read a low kon as slower complex formation. For B1, the Kd was 0.0591 nM, the koff is 0.000308 s⁻¹ and the kon was 5.21e+06 M⁻¹ s⁻¹.

B2: CL5′-eA-dPTM′ (antibody, human IgG1, V domains shown)
VH: B1 VH
The molecule B2 came in with a Kd of 0.0243 nM, a koff of 0.00011 s⁻¹ and a kon of 4.55e+06 M⁻¹ s⁻¹.
